# Starred links: 1 amine or outer side, 2 acyl side, 3 side chain; linkers in the order of their positions; H or OH if unused. Positions of bridges follow the written chain, without caps; N, C: chain ends. Non-standard residues stand in square brackets, D forms with d. Primed or numbered codes have the meaning given here. ξ: configuration not given here. *: point of attachment. Af3(HySuc) = 3-amino-L-phenylalanine acylated on the ring amine with 2-(3,6-dioxo-1,2,3,6-tetrahydropyridazin-4-yl)acetic acid, O=C(Cc1cc(=O)[nH][nH]c1=O)Nc1cccc(C[C@H](N[*:1])C(=O)[*:2])c1; af3(ac-glu) = lower case: 3-amino-D-phenylalanine, ring amine acylated with N-acetyl-D-glutamic acid, CC(=O)N[C@H](CCC(=O)[*:3])C(=O)Nc1cccc(C[C@@H](N[*:1])C(=O)[*:2])c1; af3(ac-asp) = lower case: 3-amino-D-phenylalanine, ring amine acylated with N-acetyl-D-aspartic acid, CC(=O)N[C@H](CC(=O)[*:3])C(=O)Nc1cccc(C[C@@H](N[*:1])C(=O)[*:2])c1; Af3(MSAc) = 3-aminophenylalanine with 2-methanesulfonylacetyl on the ring amine, CS(=O)(=O)CC(=O)Nc1cccc(C[C@H](N[*:1])C(=O)[*:2])c1; Af3(Iva) = 3-aminophenylalanine with isovaleryl on the ring amine, CC(C)CC(=O)Nc1cccc(C[C@H](N[*:1])C(=O)[*:2])c1; Af3(Ac-Asp) = 3-aminophenylalanine acylated on the ring amine with N-acetyl-aspartic acid; DOTA(In) = O=C1CN2CCN3CCN(CC(=O)*)CCN(CC2)CC(=O)[O][In]([O]1)[O]C(=O)C3; APAc″ = 2-(4-(amino)piperidin-1-yl)acetic acid, NC1CCN(CC(=O)*)CC1; DOTA = O=C(O)CN1CCN(CC(=O)O)CCN(CC(=O)*)CCN(CC(=O)O)CC1; Phe(3,4-Cl2) = N[C@@H](Cc1ccc(Cl)c(Cl)c1)C(=O)O; Phe(3-CF3) = N[C@@H](Cc1cccc(C(F)(F)F)c1)C(=O)O; ξTrp(7-Me) = Cc1cccc2c(CC(N)C(=O)O)c[nH]c12; ξTrp(1-Me) = Cn1cc(CC(N)C(=O)O)c2ccccc21; Ttds(3) = NCCCOCCOCCOCCCNC(=O)CCC(=O)*; mXylylene = c1cc(C[*:1])cc(C[*:2])c1; Bta = N[C@@H](Cc1csc2ccccc12)C(=O)O; Orn(Me2) = CN(C)CCC[C@H](N)C(=O)O; hSer = N[C@@H](CCO)C(=O)O; Nle = CCCC[C@H](N)C(=O)O; APAc = not defined here; Dap = NC[C@H](N)C(=O)O; Ttds″ = Ttds spacer; Sar = CNCC(=O)O
# How the values were obtained:
# [1] = target: T1, Fc-fusion protein of human carbonic anhydrase IX (human, UniProt Q16790 38-414); assay: SPR, captured hCAIX-Fc; pKD category A: >8.0
# [2] = target: T1, Fc-fusion protein of human carbonic …; assay: SPR, captured hCAIX-Fc; t1/2 category B: 5.1-15.0 min
# Experimental: (§1) Stock solutions of test compounds were prepared by dissolving each compound in DMSO. DMSO stock solution were diluted 1:1000 in Running Buffer without DMSO. […] SPR binding analyses were performed in Single Cycle Kinetic (SCK) mode at 25° C.
# (§2) For each test compound, SPR raw data in the form of resonance units (RU) were plotted as sensorgrams using the Biacore™ T200 control software. The signal from the blank sensorgram was subtracted from that of the test compound sensorgram (blank corrected). The blank corrected sensorgram was corrected for baseline drift by subtracting the sensorgram of a SCK run without the test compound (running buffer only). […] Raw data and fit results were imported as text files in IDBS. The pKD value (negative decadic logarithm of dissociation constant) was calculated in the IDBS excel template.
# [3] = target: T1, Fc-fusion protein of human carbonic …; assay: SPR, captured hCAIX-Fc; t1/2 category C: 2.1-5.0 min
# Experimental: as §1, §2
pKD [1] [pkd],"t1/2 (half-life of the complex, SPR) [2] [min]","t1/2 (half-life of the complex, SPR) [3] [min]",Binder
> 8,5.1 to 15,–,{DOTA-APAc}-VYCE[dP]D[Phe(3-CF3)]LTWSC-NH2 (linker 3-12 via mXylylene; not fully specified; reading uncertain) [3BP-4135]
> 8,5.1 to 15,–,{DOTA-APAc″}-VYCE[dP]D[Af3(Ac-Asp)]LTWSC-NH2 (linker 3-12 via mXylylene) [3BP-4363]
> 8,5.1 to 15,–,{DOTA-APAc″}-VYCE[dP]D[af3(ac-asp)]LTWSC-NH2 (linker 3-12 via mXylylene; not fully specified) [3BP-4364]
> 8,5.1 to 15,–,{DOTA-APAc}-VYC[hSer][dP]DWLTWSC-NH2 (linker 3-12 via mXylylene; reading uncertain) [3BP-4101]
> 8,5.1 to 15,–,{DOTA-APAc″}-VYCE[dP]D[Af3(Iva)]LTWSC-NH2 (linker 3-12 via mXylylene) [3BP-4236]
> 8,5.1 to 15,–,{DOTA-APAc″}-VYCE[dP]D[ξTrp(1-Me)]LTWSC-NH2 (linker 3-12 via mXylylene; not fully specified) [3BP-4144]
> 8,5.1 to 15,–,{DOTA-APAc″}-VYCE[dP]D[ξTrp(7-Me)]LTWSC-NH2 (linker 3-12 via mXylylene; not fully specified) [3BP-4158]
> 8,5.1 to 15,–,{DOTA}-DCE[dP]DWLTW[Dap]C-NH2 (lactam 10-1; linker 2-11 via mXylylene; SMILES CC(C)C[C@@H]1NC(=O)[C@H](Cc2c[nH]c3ccccc23)NC(=O)[C@H](CC(=O)O)NC(=O)[C@H]2CCCN2C(=O)[C@H](CCC(=O)O)NC(=O)[C@@H]2CSCc3cccc(c3)CSC[C@@H](C(N)=O)NC(=O)[C@H](CNC(=O)C[C@H](NC(=O)CN3CCN(CC(=O)O)CCN(CC(=O)O)CCN(CC(=O)O)CC3)C(=O)N2)NC(=O)[C@H](Cc2c[nH]c3ccccc23)NC(=O)[C@H]([C@@H](C)O)NC1=O) [3BP-4253]
> 8,5.1 to 15,–,{DOTA-APAc″}-VYCE[dP]D[af3(ac-glu)]LTWSC-NH2 (linker 3-12 via mXylylene; not fully specified) [3BP-4362]
> 8,5.1 to 15,–,{DOTA-APAc″}-VYCE[dP]D[Af3(MSAc)]LTWSC-NH2 (linker 3-12 via mXylylene) [3BP-4242]
> 8,5.1 to 15,–,{DOTA-APAc″}-VYCE[dP]D[Af3(HySuc)]LTWSC-NH2 (linker 3-12 via mXylylene) [3BP-4322]
> 8,5.1 to 15,–,"{DOTA-APAc}-VYCE[dP]D[Phe(3,4-Cl2)]LTWSC-NH2 (linker 3-12 via mXylylene; not fully specified; reading uncertain) [3BP-4133]"

# Second part, the binder before the results:
Binder,pKD [1] [pkd],"t1/2 (half-life of the complex, SPR) [2] [min]","t1/2 (half-life of the complex, SPR) [3] [min]"
{DOTA-APAc}-VYC[Orn(Me2)][dP]DWLTWSC-NH2 (linker 3-12 via mXylylene; reading uncertain) [3BP-4096],> 8,5.1 to 15,–
{DOTA-APAc}-V[Orn(Me2)]CE[dP]DWLTWSC-NH2 (linker 3-12 via mXylylene; reading uncertain) [3BP-4095],> 8,5.1 to 15,–
Ac-VYCE[Sar]D[Bta]LTWQC-NH2 (linker 3-12 via mXylylene; SMILES CC(=O)N[C@H](C(=O)N[C@@H](Cc1ccc(O)cc1)C(=O)N[C@H]1CSCc2cccc(c2)CSC[C@@H](C(N)=O)NC(=O)[C@H](CCC(N)=O)NC(=O)[C@H](Cc2c[nH]c3ccccc23)NC(=O)[C@H]([C@@H](C)O)NC(=O)[C@H](CC(C)C)NC(=O)[C@H](Cc2csc3ccccc23)NC(=O)[C@H](CC(=O)O)NC(=O)CN(C)C(=O)[C@H](CCC(=O)O)NC1=O)C(C)C) [3BP-3311],> 8,–,2.1 to 5
Ac-VYCEGDWLTWAC-NH2 (linker 3-12 via mXylylene; SMILES CC(=O)N[C@H](C(=O)N[C@@H](Cc1ccc(O)cc1)C(=O)N[C@H]1CSCc2cccc(c2)CSC[C@@H](C(N)=O)NC(=O)[C@H](C)NC(=O)[C@H](Cc2c[nH]c3ccccc23)NC(=O)[C@H]([C@@H](C)O)NC(=O)[C@H](CC(C)C)NC(=O)[C@H](Cc2c[nH]c3ccccc23)NC(=O)[C@H](CC(=O)O)NC(=O)CNC(=O)[C@H](CCC(=O)O)NC1=O)C(C)C) [3BP-3058],> 8,–,2.1 to 5
{DOTA-Ttds″}-VYCEGDWLTWAC-NH2 (linker 3-12 via mXylylene; not fully specified) [3BP-3272],> 8,–,2.1 to 5
{DOTA(In)}-YCE[dP]KWLEWSC-NH2 (linker 2-11 via mXylylene; lactam 5-8; also: indium complexed by DOTA) [3BP-4053],> 8,5.1 to 15,–
{DOTA-Ttds(3)}-[Nle]YCE[dP]DWLTWSC-NH2 (linker 3-12 via mXylylene) [3BP-3870],> 8,5.1 to 15,–
{DOTA-Ttds″}-VYCE[Sar]DWLTWQC-NH2 (linker 3-12 via mXylylene; not fully specified) [3BP-3271],> 8,–,2.1 to 5
Ac-VYCE[Sar]DWLTWAC-NH2 (linker 3-12 via mXylylene; SMILES CC(=O)N[C@H](C(=O)N[C@@H](Cc1ccc(O)cc1)C(=O)N[C@H]1CSCc2cccc(c2)CSC[C@@H](C(N)=O)NC(=O)[C@H](C)NC(=O)[C@H](Cc2c[nH]c3ccccc23)NC(=O)[C@H]([C@@H](C)O)NC(=O)[C@H](CC(C)C)NC(=O)[C@H](Cc2c[nH]c3ccccc23)NC(=O)[C@H](CC(=O)O)NC(=O)CN(C)C(=O)[C@H](CCC(=O)O)NC1=O)C(C)C) [3BP-3313],> 8,–,2.1 to 5

# Source: patent US20250339569A1 (3B PHARMACEUTICALS, published 2025)
